According to IntAct's records for PubMed 32017888:

B1: Ras-related protein Rab-8A (Homo sapiens), P61006 (parent)
chain: MAKTYDYLFKLLLIGDSGVGKTCVLFRFSEDAFNSTFISTIGIDFKIRTIELDGKRIKLQIWDTAGQERFRTITTAYYRGAMGIMLVYDITNEKSFDNIRNWIRNIEEHASADVEKMILGNKCDVNDKRQVSKERGEKLALDYGIKFMETSAKANINVENAFFTLARDIKAKMDKKLEGNSPQGSNQGVKITPDQQKRSSFFRCVLL
partner: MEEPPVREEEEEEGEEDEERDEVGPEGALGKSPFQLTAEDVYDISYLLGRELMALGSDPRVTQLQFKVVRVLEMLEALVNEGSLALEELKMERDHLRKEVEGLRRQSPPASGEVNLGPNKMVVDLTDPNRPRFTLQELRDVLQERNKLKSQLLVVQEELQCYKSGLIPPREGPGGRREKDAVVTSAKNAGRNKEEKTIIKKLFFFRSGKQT

Variants of: B1
Details: with ripl2_human RILPL2, Q969X0

Variant | effect of a mutation on the interaction
K58E | disrupting interaction strength
K58Q | disrupting interaction strength
K58A | with no effect

Further lines, results first:

effect of a mutation on the interaction | Variant
disrupting interaction strength | D44N
disrupting interaction strength | D44K

Variants of: B1
Details: with ripl2_human RILPL2, Q969X0
Remark: another data set of the same source

effect of a mutation on the interaction | Variant
disrupting interaction strength | T22N
